Measured values reported in PMC2138209.

Target: 7S subunit of the lemon shark 19S immunoglobulin (lemon shark, Negaprion brevirostris)
Assay: AUC

Work on “7S subunit of the lemon shark 19S immunoglobulin (complex)” yielded a stoichiometry N of 5.
